In the RNAGym collection of RNA variant scans (doi:10.7554/elife.80360) one finds self-cleavage data, which are given here for 39 variants.

B1: CPEB3 Ribozyme (parent)
chain: GGGGGCCACAGCAGAAGCGUUCACGUCGCGGCCCCUGUCAGAUUCUGGUGAAUCUGCGAAUUCUGCUGU

In this data set the parent is B1. Kind of data set: self-cleavage, relative activity (ratio to wild type); higher = more cleavage; co-transcriptional.
Consider GGGGGCCACAGCAGAAGCGUUCACGUCGCGGGCCCUGUCAGAUUCUGGUGAGUCUGCGAAUUCUGCUGU [C32G A52G], for which the self-cleavage amounted to 0.364.

In the case of GGGGGCCACAGCAGAAGCGUUCACGUCGCGGGCCCUGUCAGAUUCUGCUGAAUCUGCGAAUUCUGCUGU [C32G G48C], the self-cleavage was 0.604.

Consider GGGGGCCACAGCAGAAGCGUUCACGUCGCGGGCCCUGUCAGAUUCUGGUGAAUCUGCGAAUUCCGCUGU [C32G U64C], for which the self-cleavage stood at 0.311.

With GGGGGCCACAGCAGAAGCGUUCACGUCGCGGGCGCUGUCAGAUUCUGGUGAAUCUGCGAAUUCUGCUGU [C32G C34G], the self-cleavage stood at 0.212.

In the case of GGGGGCCACAGCAGAAGCGUUCACGUCGCGGGCACUGUCAGAUUCUGGUGAAUCUGCGAAUUCUGCUGU [C32G C34A], the self-cleavage was 0.303.

Consider GGGGGCCACAGCAGAAGCGUUCACGUCGCGGGCCCUGUCAGAUUCUGGUGAAUUUGCGAAUUCUGCUGU [C32G C54U], for which the self-cleavage turned out to be 0.594.

For the variant GGGGGCCACAGCAGAAGCGUUCACGUCGCGGUCUCUGUCAGAUUCUGGUGAAUCUGCGAAUUCUGCUGU [C32U C34U], the self-cleavage came out at 0.924.

GGGGGCCACAGCAGAAGCGUUCACGUCGCGGUCGCUGUCAGAUUCUGGUGAAUCUGCGAAUUCUGCUGU [C32U C34G]: the self-cleavage was determined as 0.413.

As to GGGGGCCACAGCAGAAGCGUUCACGUCGCGGGCCCUGUCAGAUUCUGGUGAAUCUGCGAAUUCUGCUUU [C32G G68U], the self-cleavage was determined as 0.815.

On to GGGGGCCACAGCAGAAGCGUUCACGUCGCGGGCCCUGUCAGAUUCUGGUGAAUCUGCGAAUUCUGAUGU [C32G C66A], for which the self-cleavage came out at 0.256.

With GGGGGCCACAGCAGAAGCGUUCACGUCGCGGGCCCUGUCAGAUUCUGGUGAAUCUGCGAAUUCUGUUGU [C32G C66U], the self-cleavage was found to be 0.394.

On to GGGGGCCACAGCAGAAGCGUUCACGUCGCGGUCCCUAUCAGAUUCUGGUGAAUCUGCGAAUUCUGCUGU [C32U G37A], for which the self-cleavage was 0.288.

Take GGGGGCCACAGCAGAAGCGUUCACGUCGCGGUCCCUCUCAGAUUCUGGUGAAUCUGCGAAUUCUGCUGU [C32U G37C]: the self-cleavage was found to be 0.241.

For GGGGGCCACAGCAGAAGCGUUCACGUCGCGGGCCCUGUCAGAUUAUGGUGAAUCUGCGAAUUCUGCUGU [C32G C45A], the self-cleavage was 0.381.

Consider GGGGGCCACAGCAGAAGCGUUCACGUCGCGGGCCCUGUCAGAUUUUGGUGAAUCUGCGAAUUCUGCUGU [C32G C45U], for which the self-cleavage is 0.573.

In the case of GGGGGCCACAGCAGAAGCGUUCACGUCGCGGGCCCUGUCAGAUUCUGGUGAAUCAGCGAAUUCUGCUGU [C32G U55A], the self-cleavage was 0.268.

For GGGGGCCACAGCAGAAGCGUUCACGUCGCGGGCCCUGUCAGAUUCUGGUGAAUCUGCGACUUCUGCUGU [C32G A60C], the self-cleavage was 0.194.

For the variant GGGGGCCACAGCAGAAGCGUUCACGUCGCGGGCCCUGUCAGAUUCUGGUGAAUCUGCGAUUUCUGCUGU [C32G A60U], the self-cleavage came out at 0.19.

As to GGGGGCCACAGCAGAAGCGUUCACGUCGCGGUCCCUGUCAGAUUCUGGUGACUCUGCGAAUUCUGCUGU [C32U A52C], the self-cleavage is 0.913.

Take GGGGGCCACAGCAGAAGCGUUCACGUCGCGGGCCCUGUCAUAUUCUGGUGAAUCUGCGAAUUCUGCUGU [C32G G41U]: the self-cleavage was determined as 0.328.

GGGGGCCACAGCAGAAGCGUUCACGUCGCGGGCCCCGUCAGAUUCUGGUGAAUCUGCGAAUUCUGCUGU [C32G U36C]: the self-cleavage turned out to be 0.215.

On to GGGGGCCACAGCAGAAGCGUUCACGUCGCGGGCCCAGUCAGAUUCUGGUGAAUCUGCGAAUUCUGCUGU [C32G U36A], for which the self-cleavage turned out to be 0.255.

In the case of GGGGGCCACAGCAGAAGCGUUCACGUCGCGGGCCCUGUCAGAUUCCGGUGAAUCUGCGAAUUCUGCUGU [C32G U46C], the self-cleavage is 0.594.

GGGGGCCACAGCAGAAGCGUUCACGUCGCGGUCCCUGUCGGAUUCUGGUGAAUCUGCGAAUUCUGCUGU [C32U A40G]: the self-cleavage came to 0.95.

Take GGGGGCCACAGCAGAAGCGUUCACGUCGCGGUCCCUGUCCGAUUCUGGUGAAUCUGCGAAUUCUGCUGU [C32U A40C]: the self-cleavage is 0.734.

GGGGGCCACAGCAGAAGCGUUCACGUCGCGGUCCCUGUCUGAUUCUGGUGAAUCUGCGAAUUCUGCUGU [C32U A40U]: the self-cleavage is 0.871.

Turning to GGGGGCCACAGCAGAAGCGUUCACGUCGCGGUCCCUGACAGAUUCUGGUGAAUCUGCGAAUUCUGCUGU [C32U U38A], the self-cleavage worked out at 0.947.

Take GGGGGCCACAGCAGAAGCGUUCACGUCGCGGGCCCUGUCAGAUUCUGGUGAAUCUGAGAAUUCUGCUGU [C32G C57A]: the self-cleavage worked out at 0.252.

Consider GGGGGCCACAGCAGAAGCGUUCACGUCGCGGGCCCUGUCAGAUUCUGGUGAAUCUGUGAAUUCUGCUGU [C32G C57U], for which the self-cleavage came out at 0.234.

GGGGGCCACAGCAGAAGCGUUCACGUCGCGGUCCCUGUCAGAUUCUGGUCAAUCUGCGAAUUCUGCUGU [C32U G50C]: the self-cleavage amounted to 0.991.

Turning to GGGGGCCACAGCAGAAGCGUUCACGUCGCGGGCCCUGUCAGAUUCUGGUGAACCUGCGAAUUCUGCUGU [C32G U53C], the self-cleavage was 0.217.

For the variant GGGGGCCACAGCAGAAGCGUUCACGUCGCGGGCCCUGUCAGAUUCUGGUGAAGCUGCGAAUUCUGCUGU [C32G U53G], the self-cleavage was 0.382.

With GGGGGCCACAGCAGAAGCGUUCACGUCGCGGUCCCUGUCAUAUUCUGGUGAAUCUGCGAAUUCUGCUGU [C32U G41U], the self-cleavage worked out at 0.856.

Turning to GGGGGCCACAGCAGAAGCGUUCACGUCGCGGUCCCUGUCACAUUCUGGUGAAUCUGCGAAUUCUGCUGU [C32U G41C], the self-cleavage is 0.858.

With GGGGGCCACAGCAGAAGCGUUCACGUCGCGGGCCCUGUCAGAUUCUUGUGAAUCUGCGAAUUCUGCUGU [C32G G47U], the self-cleavage is 0.514.

As for GGGGGCCACAGCAGAAGCGUUCACGUCGCGGUCCCUGUCAGAUUCUGGUGAAUGUGCGAAUUCUGCUGU [C32U C54G], the self-cleavage was 0.819.

On to GGGGGCCACAGCAGAAGCGUUCACGUCGCGGGCCCUGUCAGAUCCUGGUGAAUCUGCGAAUUCUGCUGU [C32G U44C], for which the self-cleavage was 0.452.

As for GGGGGCCACAGCAGAAGCGUUCACGUCGCGGUCCUUGUCAGAUUCUGGUGAAUCUGCGAAUUCUGCUGU [C32U C35U], the self-cleavage was 0.77.

For the variant GGGGGCCACAGCAGAAGCGUUCACGUCGCGGUCCAUGUCAGAUUCUGGUGAAUCUGCGAAUUCUGCUGU [C32U C35A], the self-cleavage is 0.25.
